Data published in article PMC12614781, “The VelB IDD promotes selective heterodimer formation of velvet proteins for fungal development” (Life Science Alliance, 2025).

Biological target: T1, VelB-GFP (A. nidulans Velvet-like B, full length, fused to GFP) (A. nidulans, UniProt C8VTS4 1-369)
T1 construct: Velvet-like B (VelB), A. nidulans, AN0363, full-length protein with the 99-aa intrinsically disordered domain (IDD) inside the velvet domain; Strains AGB1132 (wild-type background), AGB1190 (veA deletion background), AGB1136 (with vosA:ha), AGB1149 (with veA:ha); plasmid pME4687; Fusion printed as 67 kD; also called velB::sgfp; full-length VelB-GFP; source: A. nidulans, velB:gfp in locus under …
T1 sequence (looked up): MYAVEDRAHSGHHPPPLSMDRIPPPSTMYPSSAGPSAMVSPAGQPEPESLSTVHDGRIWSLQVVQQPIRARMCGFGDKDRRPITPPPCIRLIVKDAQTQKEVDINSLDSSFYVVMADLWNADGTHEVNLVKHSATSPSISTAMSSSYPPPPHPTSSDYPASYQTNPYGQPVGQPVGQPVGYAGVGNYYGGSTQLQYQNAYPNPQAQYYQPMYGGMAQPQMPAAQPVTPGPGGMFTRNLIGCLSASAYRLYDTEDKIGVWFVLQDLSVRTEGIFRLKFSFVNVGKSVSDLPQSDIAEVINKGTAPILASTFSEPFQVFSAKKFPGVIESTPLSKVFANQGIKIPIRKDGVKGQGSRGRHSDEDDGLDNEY
Assay: co-IP; GFP and HA (anti-HA agarose) pull-downs from vegetative mycelium of A. nidulans strains expressing veA:HA or vosA:HA and velB:gfp or velB^ΔIDD:gfp under native promoters, intact veA; Western with GFP and HA antibodies
Details: partners not purified

B1: VosA-HA (A. nidulans VosA with HA tag) (natural protein, UniProt Q5BBX1 1-430, looked up)
chain: MSAANYPDPSLPRPSTSDDFELIVRQNPNRARVAGGKEKERKPVDPPPIVQIRVREEGTYLAQHYLQSPYFFMSCSLYDAQEDAPASIPPSTALTGTLVSSLHRLKDVDNTDGGFFVWGDLSIKVEGDFRLKFSLFEMRKTDVVFLKSIVSERFTVSPPKSFPGMAESTFLSRSFADQGVKLRIRKEPRTLIKRTAPRPEEYPQAAIPRSPSDRTAMQIPGSSYPAPPYQPTSRDYSYYAPVKRQRTSVDYGARGMYDADGRMRQMETYPQTATLYGQPGGYPTPMMGYPSGHGGVPDYAMSYGLPPSAQVPQMQDPAAQSRSSQQATMQSLGMVNPPGTPTPDSARAMMQQAYPRPQYSASTAVLPPLQQSRNYPQGTNGATRGYYEQSPQATPILPSQPLGTSEAERYGVPPGHTGYDHTGSANGTPR
notes: Viability of spores A (VosA), A. nidulans, AN1959; the vosA gene amplified with its 5' flanking region; Plasmid pME4693; strains AGB1136 (with velB:gfp) and AGB1137 (with velB^ΔIDD:gfp); source: A. nidulans, vosA:ha under its native promoter, in extract of vegetative mycelium
With B1 the “fold abundance of VosA in the GFP pull-down against the VelB^ΔIDD-GFP strain” value was 10 fold.
